# From publication doi:10.64898/2025.12.22.695686
# Tests used:
# [1] = target: Sgs3-MD (Sgs3 mucin domain repeat peptide) (Drosophila melanogaster)
# [2] = target: Sgs1-MD (Sgs1 mucin domain repeat peptide) (Drosophila melanogaster)
Binder,"KM for the acceptor peptide Sgs3-MD, Michaelis-Menten kinetics of O-glycosylation (UDP-Glo assay), fold against the corresponding Sgs1-MD parameter [1] [fold lower]","KM for the acceptor peptide Sgs1-MD, Michaelis-Menten kinetics of O-glycosylation (UDP-Glo assay), fold against PGANT5B^WT (fold decrease) [2]","KM for the acceptor peptide Sgs1-MD, Michaelis-Menten kinetics of O-glycosylation (UDP-Glo assay), fold against PGANT5B^WT [2] [fold lower]","KM for the acceptor peptide Sgs1-MD, Michaelis-Menten kinetics of O-glycosylation (UDP-Glo assay), fold against PGANT5A^WT [2] [fold higher]"
PGANT5A^WT (amino acids 77–626) (enzyme) NEINTEKSLDGESGGALIMGQGFASGGISMTYPSVVLKKWFLAPSVQEAKGKPGEMGKPVKIPADMKDLMKEKFKENQFNLLASDMISLNRSLTDVRHEGCRRKHYASKLPTTSIVIVFHNEAWTTLLRTVWSVINRSPRALLKEIILVDDASERDFLGKQLEEYVAKLPVKTFVLRTEKRSGLIRARLLGAEHVSGEVITFLDAHCECTEGWLEPLLARIVQNRRTVVCPIIDVISDETFEYITASDSTWGGFNWKLNFRWYRVPSREMARRNNDRTAPLRTPTMAGGLFSIDKDYFYEIGSYDEGMDIWGGENLEMSFRIWQCGGILEIIPCSHVGHVFRDKSPYTFPGGVAKIVLHNAARVAEVWLDEWRDFYYSMSTGARKASAGDVSDRKALRDRLKCKSFRWYLENVYPESLMPLDYYYLGEIRNAETETCLDTMGRKYNEKVGISYCHGLGGNQVFAYTKRQQIMSDDLCLDASSSNGPVNMVRCHNMGGNQEWVYDAEEKWIRHTNTGQCLQRATRDDANTPLLRPCSYGKGQQWLMESKFK,10,,0.7,
PGANT5A^D419K (amino acids 77–626) (enzyme) NEINTEKSLDGESGGALIMGQGFASGGISMTYPSVVLKKWFLAPSVQEAKGKPGEMGKPVKIPADMKDLMKEKFKENQFNLLASDMISLNRSLTDVRHEGCRRKHYASKLPTTSIVIVFHNEAWTTLLRTVWSVINRSPRALLKEIILVDDASERDFLGKQLEEYVAKLPVKTFVLRTEKRSGLIRARLLGAEHVSGEVITFLDAHCECTEGWLEPLLARIVQNRRTVVCPIIDVISDETFEYITASDSTWGGFNWKLNFRWYRVPSREMARRNNDRTAPLRTPTMAGGLFSIDKDYFYEIGSYDEGMDIWGGENLEMSFRIWQCGGILEIIPCSHVGHVFRKKSPYTFPGGVAKIVLHNAARVAEVWLDEWRDFYYSMSTGARKASAGDVSDRKALRDRLKCKSFRWYLENVYPESLMPLDYYYLGEIRNAETETCLDTMGRKYNEKVGISYCHGLGGNQVFAYTKRQQIMSDDLCLDASSSNGPVNMVRCHNMGGNQEWVYDAEEKWIRHTNTGQCLQRATRDDANTPLLRPCSYGKGQQWLMESKFK,10,,,0.6

# Next, values leading:
"KM for the acceptor peptide Sgs3-MD, Michaelis-Menten kinetics of O-glycosylation (UDP-Glo assay), fold against the corresponding Sgs1-MD parameter [1] [fold lower]","KM for the acceptor peptide Sgs1-MD, Michaelis-Menten kinetics of O-glycosylation (UDP-Glo assay), fold against PGANT5B^WT (fold decrease) [2]","KM for the acceptor peptide Sgs1-MD, Michaelis-Menten kinetics of O-glycosylation (UDP-Glo assay), fold against PGANT5B^WT [2] [fold lower]","KM for the acceptor peptide Sgs1-MD, Michaelis-Menten kinetics of O-glycosylation (UDP-Glo assay), fold against PGANT5A^WT [2] [fold higher]",Binder
10,2,,,PGANT5B^K419D (amino acids 77–626) (enzyme) NEINTEKSLDGESGGALIMGQGFASGGISMTYPSVVLKKWFLAPSVQEAKGKPGEMGKPVKIPADMKDLMKEKFKENQFNLLASDMISLNRSLTDVRHEGCRRKHYASKLPTTSIVIVFHNEAWTTLLRTVWSVINRSPRALLKEIILVDDASERDFLGKQLEEYVAKLPVKTFVLRTEKRSGLIRARLLGAEHVSGEVITFLDAHCECTEGWLEPLLARIVQNRRTVVCPIIDVISDETFEYITASDSTWGGFNWKLNFRWYRVPSREMARRNNDRTAPLRTPTMAGGLFSIDKDYFYEIGSYDEGMDIWGGENLEMSFRVWMCGGVLEIAPCSRVGHVFRDSTPYTFPGGTTEIVNHNNARLVEVWLDDWKEFYYSFYPGARKASAGDVSDRKALRDRLKCKSFRWYLENVYPESLMPLDYYYLGEIRNAETETCLDTMGRKYNEKVGISYCHGLGGNQVFAYTKRQQIMSDDLCLDASSSNGPVNMVRCHNMGGNQEWVYDAEEKWIRHTNTGQCLQRATRDDANTPLLRPCSYGKGQQWLMESKFK
10,,,,PGANT5B^WT (amino acids 77–626) (enzyme) NEINTEKSLDGESGGALIMGQGFASGGISMTYPSVVLKKWFLAPSVQEAKGKPGEMGKPVKIPADMKDLMKEKFKENQFNLLASDMISLNRSLTDVRHEGCRRKHYASKLPTTSIVIVFHNEAWTTLLRTVWSVINRSPRALLKEIILVDDASERDFLGKQLEEYVAKLPVKTFVLRTEKRSGLIRARLLGAEHVSGEVITFLDAHCECTEGWLEPLLARIVQNRRTVVCPIIDVISDETFEYITASDSTWGGFNWKLNFRWYRVPSREMARRNNDRTAPLRTPTMAGGLFSIDKDYFYEIGSYDEGMDIWGGENLEMSFRVWMCGGVLEIAPCSRVGHVFRKSTPYTFPGGTTEIVNHNNARLVEVWLDDWKEFYYSFYPGARKASAGDVSDRKALRDRLKCKSFRWYLENVYPESLMPLDYYYLGEIRNAETETCLDTMGRKYNEKVGISYCHGLGGNQVFAYTKRQQIMSDDLCLDASSSNGPVNMVRCHNMGGNQEWVYDAEEKWIRHTNTGQCLQRATRDDANTPLLRPCSYGKGQQWLMESKFK
